Test results reported in paper PMC5091765.

Legend:
[1] = target: bovine TGF-β RI extracellular domain fused to the human IgG1 Fc domain (bovine) (UniProt O46680); assay: ELISA; competition: TGF-β coated at 400 ng/mL; increasing concentrations of FhTLM incubated with the Receptor-Fc fusion in solution at 37°C for 1 hr, then added to the plate
[2] = target: bovine TGF-β RII extracellular domain fused to the human IgG1 Fc domain (bovine); assay: as above
[3] = target: bovine TGF-β RI extracellular domain fused to the human IgG1 Fc domain (bovine) (UniProt O46680)
[4] = target: bovine TGF-β RII extracellular domain fused to the human IgG1 Fc domain (bovine)
[5] = target: bovine TGF-β RI extracellular domain fused to the human IgG1 Fc domain (bovine) (UniProt O46680); assay: ELISA; competition: FhTLM coated at 400 ng/mL; increasing concentrations of TGF-β incubated with the Receptor-Fc fusion in solution at 37°C for 1 hr, then added to the plate
[6] = target: bovine TGF-β RII extracellular domain fused to the human IgG1 Fc domain (bovine); assay: as above

bovine TGF-β RI extracellular domain fused to the human IgG1 Fc domain (bovine), sequence (O46680 30-122): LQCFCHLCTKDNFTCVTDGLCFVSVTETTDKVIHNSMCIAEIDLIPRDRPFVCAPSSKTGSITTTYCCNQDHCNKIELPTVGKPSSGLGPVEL

Substance | percent reduction of the binding of TGF-β RI-Fc to immobilised TGF-β1 [1] [%] | percent reduction of the binding of TGF-β RII-Fc to immobilised TGF-β1 [2] [%] | percent of primary bovine PBMCs positive for pSmad2/3 co-localised with the nucleus, 3 to 4 hrs with FhTLM [3] | percent of primary bovine PBMCs positive for pSmad2/3 co-localised with the nucleus, 3 to 4 hrs with FhTLM [4] | percent reduction of the binding of TGF-β RI-Fc (printed as TGF-β RII-Fc a second time) to immobilised FhTLM [5] [%] | percent reduction of the binding of TGF-β RII-Fc to immobilised FhTLM [6] [%]
F. hepatica TGF-like molecule, FhTLM (recombinant) (ligand) | 42 | 46 | 15.8 % of cells | 15.8 % of cells | – | –
human TGF-β1 (ligand) | – | – | – | – | 22 | 50
